Drawing on US20220025003A1, “REAGENTS AND METHODS FOR CONTROLLING PROTEIN FUNCTION AND INTERACTION” (University of Washington, priority 2018, published 2022), this text covers EC50, EC50 of the danoprevir titration, GFP fluorescence and EC50 of the grazoprevir titration, CXCR4 immunofluorescence for 3 molecules.

What is called EC50 is the concentration that produces a half-maximal response. Low values mean an effect from little substance, high ones a need for much substance.

For assay [1], the target named is NS3a (active), Avi-His6-NS3a catalytically active. The assay can be described thus: fluorescence polarization; FB50. The following applies: chains peptide; modification not given. (In general: Fluorescence polarisation rises when a labelled molecule tumbles more slowly, as on binding a larger partner.)
Assay [2] shares this target. The assay can be described thus: fluorescence polarization; FB50. The note with it: chains peptide; modification not given. This is another data set of the same source.
Assay [3] concerns the target NS3aH1-VPR, cells treated with danoprevir (hepatitis C virus). The assay can be described thus: cell-based or functional assay.
The target in assay [4] is NS3aH1-VPR, cells treated with grazoprevir (hepatitis C virus). The assay can be described thus: cell-based or functional assay.

Ends that are not written are not given here.

B1: FAM-ANR (peptide)
chain: GSGSGELDELVYLLDGPGYDPIHSD
modifications: not fully specified (N-terminus)
For B1, the figures for the half-maximal effective concentration (EC50) in assay [1] and in assay [2] were 40 nM and 30 nM, respectively.

B2: NLS-PCP-DNCR2 (from NLS-PCP-DNCR2-P2a-BFP) (designed binder)
chain: MPKKKRKVGSMSKTIVLSVGEATRTLTEIQSTADRQIFEEKVGPLVGRLRLTASLRQNGAKTAYRVNLKLDQADVVDSGLPKVRYTQVWSHDVTIVANSTEASRKSLYDLTKSLVATSQVEDLVVNLVPLGRGSGSGSSDEEEARELIERAKEAAERAQEAAERTGDPRVRELARELKRLAQEAAEEVKRDPSSSDVNEALKLIVEAIEAAVDALEAAERTGDPEVRELARELVRLAVEAAEEVQRNPSSSDVNEALHSIVYAIEAAIFALEAAERTGDPEVRELARELVRLAVEAAEEVQRNPSSRNVEHALMRIVLAIYLAEENLREAEESGDPEKREKARERVREAVERAEEVQRDPSGWLNHEQKLISEEDLGSGATNFSLLKQAGDVEENPG
B2 came in with an EC50 of the danoprevir titration, GFP fluorescence in assay [3] of 0.79 nM.

B3: NLS-MCP-GNCR1 (from NLS-MCP-GNCR1-P2a-BFP) (designed binder)
chain: MPKKKRKVGSMASNFTQFVLVDNGGTGDVTVAPSNFANGIAEWISSNSRSQAYKVTCSVRQSSAQNRKYTIKVEVPKGAWRSYLNMELTIPIFATNSDCELIVKAMQGLLKDGNPIPSAIAANSGIYGSGGSGDIEKLCKKAEEEAKEAQEKADELRQRHPDSQAAEDAEDLANLAVAAVLTACLLAQEHPNADIAKLCIKAASEAAEAASKAAELAQRHPDSQAARDAIKLASQAARAVILAIMLAAENPNADIAKLCIKAASEAAEAASKAAELAQRHPDSQAARDAIKLASQAAEAVERAIWLAAENPNADIAKKCIKAASEAAEEASKAAEEAQRHPDSQKARDEIKEASQKAEEVKERCKSEQKLISEEDLGSGATNFSLLKQAGDVEENPG
Consider B3, for which, in assay [4], the EC50 of the grazoprevir titration, CXCR4 immunofluorescence was 0.16 nM.
